11 molecules from patent publication US20260028422A1 (CONCEPT TO MEDICINE BIOTECH, published 2026) can be followed below.

Substitutions are numbered along the chain they refer to.

The labels stand for the following.
B1: 10F7D9 chimeric monoclonal antibody (antibody, V domains shown)
VH: QIQLVQSGPELKKPGETVKISCKASGYTFTNYGMNWVKQAPGKGLKWMGWINTYTGEPTYADDFKGRFAFSLETSASTAYLQINNLKNEDLATYFCATYGHYAWFAYWGQGTLVTVSA
VL: QIVLSQSPAILSASPGEKVTMTCRASSSVSYMHWYQQKSGSSPKPWIYATSNLASGVPARFSGSGSGTSYSLTISRVEAEDAATYFCQQWGTKPLTFGAGTKLELK
B2: 265F11B5 chimeric monoclonal antibody (antibody, V domains shown)
VH: QVQLQQSGPELVKPGASVRLSCKASGYTFTTYDINWVKQRPGLGLEWIGWIYPRDGYTKYNEKFKGRATLAVDTSSSTAYMELHSLTSEDSAVYFCTRGYYDNLYYFDYWGQGTTLTVSS
VL: EIVLTQSPTTVAASPGEKITITCSASSIISSNYFHWYQQRPGFSPKLLIYRTSNLASGVPARFSGSGSGTSYSLTIGTMEAEDVATYYCQQGRSVPLTFGAGTKLELK
B3: 254B4D9 chimeric monoclonal antibody (antibody, V domains shown)
VH: QIQLVQSGPELKKPGETVKISCKASGYTFTAYGMSWVKQAPGKGLQWMGWINTYSGVPTYTDDFKGRFAFSLEASASTAFLQINNLKNEDTSTYFCARRAAVVAKYWYFDVWGTGTTVTVSS
VL: DIQMTQSPSSLFASLGGKVIITCKSSQDINKRISWYQHKPGKGPRLLIHSTSSLQPGIPLRFSGSGSGRDYSFSISNLEPEDIATYFCLQYDNLLTFGAGTKLELK
B4: 247E5A8 chimeric monoclonal antibody (antibody, V domains shown)
VH: DVQLQESGPGLVKPSQSLSLTCSVTGYSITGGYYWTWIRQFPGNKLEWMGYISYDGDNNYNPSLKNRISITRDTSKNQFFLNLNSVTTEDTATYYCAREGGRLRTMDYWGQGTSVTVSS
VL: QIVLTQSPAIMSASPGEKVTITCRASSSVNYMHWFQQKPGTSPKLWIYTTSNLASGVPARFSGSGSGTSYSLTISRMEAEDAATYYCQQRSSYPFTFGSGTKLEIK
B5: 85H8D5 chimeric monoclonal antibody (antibody, V domains shown)
VH: QIQLVQSGPELKKPGETVKISCMASGYTFTTHGVTWVKQAPGQGLQRMGWINTYSGVPTYADDFKGRFVFSLETSANTAHLQINNLKNEDTATYFCARTNNYRYFDVWGTGTTVTVSS
VL: B1 VL with A13S, S39P, S71F, F86Y, G91N, K93D, L95P, A99G, L105I
B6: 216G3D6 chimeric monoclonal antibody (antibody, V domains shown)
VH: QVTLKESGPGILQPSQTLSLTCSFSGFSLSTSGMGVGWIRQPSGKGLEWLAHIWWDDDKHCNPALKSRLTISKDTSSNQVFLKIASLDTADTATYYCTQMTMTREFAYWGQGTLVTVSA
VL: DIQMTQTISSLSASLGDRVTISCSAGQGISNYLNWYQQKPDGTVKLLIYYTSRLHSGVPSRFSGSGSGTDFSLTISNLEPEDIATYFCQQYSKFPYTFGGGTKLEIK
B7: 252H9D5 chimeric monoclonal antibody (antibody, V domains shown)
VH: QVTLRESGPGILQPSQTLSLTCSFSGFSLNTFGMGVGWIRQSSGKGLKWLAHIWWDDDKFYNPALKSRLTISKDTSKNQVFLKIANVDTTDTATYYCARIEGGLPYYYDYWGQGTPLIVSS
VL: DIVMTQSQKIMSTSVGDRISVTCKASQIVGTNVVWYQQKPGQSPKALIYSTSYRYSGVPDRFTGSRSGTDFTLTISNVQSEDLANYFCQQYNSYPFTFGSGTKLEIK
B8: 252C12B10 chimeric monoclonal antibody (antibody, V domains shown)
VH: QVQLQQPGTELVKPGASVKLSCKTSGYTFTSYWMHWMKQRPGQGLEWLGHINPSTGGSNYNEKFKSKATLTVDKSSNTAYMQLSSLTSEDSAVYYCARPRGFYGYSYWYFDVWGSGTTVTVSS
VL: DIQMTQTTSSLSASLGDRVTISCSASQDINNYLNWYQHKPDGTIKVLIYFTSSLHSGVPSRFSGSGSGTEYSLTISNLEPEDIATYYCQQYSKLPPTFGSGTKLEIK
B9: 276C2D1 chimeric monoclonal antibody (antibody, V domains shown)
VH: B2 VH with R19K, T31S, R67K, T97A, D102S
VL: B2 VL with I2V, T9P, V11M, I28S, F34L, R40K, V95I
B10: 280C6A3 chimeric monoclonal antibody (antibody, V domains shown)
VH: B2 VH with R19K, T28S, L43Q, Y57S, R67K, A71T, V72L, S77N, E82G, T97A
VL: B2 VL with V11M, I28S, I29V, F34L, R40K, S94I
B11: 300A5A3 chimeric monoclonal antibody (antibody, V domains shown)
VH: B2 VH with R19K, R67K, Y80S, T97A, Y109N, Q112P
VL: B2 VL with I2N, F34L, R40K, V84A

The first assay has as its target T1, human MerTK expressed on cells (human, UniProt Q12866 21-999).
T1 construct: whole, on cells; also called CHO-K1-hMerTK; CHO-K1-MerTK
T1 sequence (looked up): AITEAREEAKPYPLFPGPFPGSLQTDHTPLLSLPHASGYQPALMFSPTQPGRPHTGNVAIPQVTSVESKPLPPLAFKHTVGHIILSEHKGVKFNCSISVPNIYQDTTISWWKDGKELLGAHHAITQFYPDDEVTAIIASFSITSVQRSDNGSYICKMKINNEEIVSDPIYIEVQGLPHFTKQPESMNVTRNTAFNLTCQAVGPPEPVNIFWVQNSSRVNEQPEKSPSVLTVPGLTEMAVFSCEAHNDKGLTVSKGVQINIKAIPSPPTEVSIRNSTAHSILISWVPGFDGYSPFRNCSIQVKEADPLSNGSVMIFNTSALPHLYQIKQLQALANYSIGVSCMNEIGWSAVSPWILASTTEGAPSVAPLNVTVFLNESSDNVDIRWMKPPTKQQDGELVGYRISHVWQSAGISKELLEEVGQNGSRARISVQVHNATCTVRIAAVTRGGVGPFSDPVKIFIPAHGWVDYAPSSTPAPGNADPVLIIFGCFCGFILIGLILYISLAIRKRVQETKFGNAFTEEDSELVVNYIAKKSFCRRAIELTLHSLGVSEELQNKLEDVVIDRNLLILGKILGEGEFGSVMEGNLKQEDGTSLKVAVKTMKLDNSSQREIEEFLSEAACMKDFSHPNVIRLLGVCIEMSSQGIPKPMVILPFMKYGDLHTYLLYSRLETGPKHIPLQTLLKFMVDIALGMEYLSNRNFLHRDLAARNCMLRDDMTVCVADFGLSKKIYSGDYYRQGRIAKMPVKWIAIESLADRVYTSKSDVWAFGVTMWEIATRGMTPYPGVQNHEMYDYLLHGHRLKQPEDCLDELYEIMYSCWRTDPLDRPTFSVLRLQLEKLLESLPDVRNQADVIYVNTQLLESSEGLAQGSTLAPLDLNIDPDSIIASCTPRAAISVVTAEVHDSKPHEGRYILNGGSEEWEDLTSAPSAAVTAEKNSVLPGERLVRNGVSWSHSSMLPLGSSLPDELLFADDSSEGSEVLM
As to the kind of experiment: FACS on CHO-K1 cells overexpressing human MerTK, MFI (PE). The method, then: (§1) To evaluate the binding property to the antigen expressed on the cells, the chimeric monoclonal antibodies were analyzed for their binding to human MerTK overexpressed on CHO-K1 cells by FACS. Briefly, human MerTK overexpressing CHO-K1 (CHO-K1-MerTK) cells were firstly incubated with 5-fold serially diluted mAbs starting at 20 nM at 4° C. for 1 hour. After washing with FACS buffer, the PE conjugated anti-human IgG-Fc secondary antibody was added to each well and incubated at 4° C., for 30 mins. The mean fluorescence intensity (MFI) of PE were evaluated by QuantAnalyzer 16.
To evaluate the binding property to the antigen expressed on the cells, the humanized antibodies were analyzed by FACS as described before.
By EC50 is commonly meant the concentration giving half of the maximal effect. A higher EC50 goes with weaker potency. In the case of B1, the EC50 was found to be 230 pM.

For another assay, the target named is T2, human MerTK-his protein (human, UniProt Q12866 21-505).
T2 construct: extracellular domain; also called hMerTK-His; human MerTK protein
T2 sequence (looked up): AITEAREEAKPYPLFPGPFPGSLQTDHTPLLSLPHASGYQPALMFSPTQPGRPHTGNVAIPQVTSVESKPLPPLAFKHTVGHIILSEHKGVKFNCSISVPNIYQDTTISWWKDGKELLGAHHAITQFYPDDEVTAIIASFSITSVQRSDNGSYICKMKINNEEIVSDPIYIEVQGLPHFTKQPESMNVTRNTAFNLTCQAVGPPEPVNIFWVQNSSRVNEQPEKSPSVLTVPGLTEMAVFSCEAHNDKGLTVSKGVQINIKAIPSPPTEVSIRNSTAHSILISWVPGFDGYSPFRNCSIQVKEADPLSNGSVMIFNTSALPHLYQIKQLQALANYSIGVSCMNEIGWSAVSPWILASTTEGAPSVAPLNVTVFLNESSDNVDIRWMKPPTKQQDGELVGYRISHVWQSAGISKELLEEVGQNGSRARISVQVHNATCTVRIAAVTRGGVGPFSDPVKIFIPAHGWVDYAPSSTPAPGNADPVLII
As to the kind of experiment: SPR Biacore 8K, antibody captured on Protein A chip, 50 nM antigen. The method, then:
To explore whether the humanized antibodies could maintain their binding kinetics, affinity ranking were performed with Biacore™. The antibodies were captured with a Protein A chips. Human MerTK-his protein at 50 nM was injected over captured antibodies for 180 s at a flow rate of 30 μL/min. The antigen was allowed to dissociate for 600 s. The experiment was carried out on a Biacore™ 8K. Data analysis was carried out using Biacore™ 8K evaluation software.
For orientation: SPR reads the build-up and loss of mass on a sensor chip optically.
As usually defined, the Kd is the equilibrium constant for the complex coming apart. The koff is a measure of how fast the partners let go of each other. Higher therefore signals a short-lived complex. As usually defined, the kon is the second-order rate constant of association. B2 came in with a Kd of 392 pM, a koff of 7.78e-05 s⁻¹ and an on-rate (kon) of 199000 M⁻¹ s⁻¹.

As to B3, binding was characterised by a dissociation constant (Kd) of 34900 pM, the koff amounted to 0.000785 s⁻¹ and the kon was found to be 22500 M⁻¹ s⁻¹.

In the next assay the target is T1, human MerTK expressed on cells. As to the kind of experiment: FACS on CHO-K1 cells overexpressing human MerTK, MFI (PE). This is another data set of the same source. The method, then: as §1
For B4, the concentration giving a half-maximal response (EC50) turned out to be 120 pM and the Top was 10800 MFI (PE).

As for B1, it took 40 pM to reach a half-maximal effect (EC50) and the Top is 10800 MFI (PE).

For B5, the midpoint of the response, the EC50, lay at 54 pM and the Top was 10500 MFI (PE).

In the case of B6, a half-maximal response (EC50) required 170 pM and the Top was 11000 MFI (PE).

On to B7, for which the response was half-maximal at 120 pM (EC50) and the Top was 7290 MFI (PE).

For B8, the half-maximal effective concentration (EC50) was 63 pM and the Top was 6040 MFI (PE).

The target in the next assay is T2, human MerTK-his protein. As to the kind of experiment: ELISA, plate coated with human MerTK-his, OD 450nm. A general note: ELISA stands for enzyme-linked immunosorbent assay.
As for B1, the concentration giving a half-maximal response (EC50) was 24 pM.

Take B2: the EC50 worked out at 36 pM. Compared with the last molecule, the EC50 is about 1.5-fold higher.

For B3, the EC50 was determined as 95 pM.

The target of another assay is T2, human MerTK-his protein. As to the kind of experiment: SPR Biacore T200, antibody captured on Protein A chip. The method, then:
The binding affinity of the MerTK chimeric antibodies to human MerTK-his protein was tested with Biacroe™ T200 using a capture method. Briefly, the antibodies were captured with a Pro-A chip. […] The antigen was allowed to dissociate for 420-800 s. Data analysis was carried out using Biacore™ T200 evaluation software.
Regarding B4, the dissociation constant (Kd) is 4590 pM, the koff was determined as 0.000596 s⁻¹ and the kon was 130000 M⁻¹ s⁻¹.

Take B1: the Kd is 4300 pM, the koff was 0.00238 s⁻¹ and the association rate constant (kon) was found to be 554000 M⁻¹ s⁻¹.

On to B5, for which the Kd stood at 11400 pM, the koff is 0.00664 s⁻¹ and the kon is 582000 M⁻¹ s⁻¹.

In turn, B9 registered a dissociation constant (Kd) of 12700 pM, a koff of 0.00223 s⁻¹ and a kon of 175000 M⁻¹ s⁻¹.

Turning to B10, binding was characterised by a dissociation constant (Kd) of 3080 pM, the off-rate (koff) was 0.000553 s⁻¹ and the association rate constant (kon) stood at 179000 M⁻¹ s⁻¹.

Regarding B11, the Kd turned out to be 1360 pM, the koff is 0.00029 s⁻¹ and the kon was 214000 M⁻¹ s⁻¹.

With B2, the dissociation constant (Kd) is 1220 pM, the off-rate (koff) came out at 0.000232 s⁻¹ and the kon came out at 191000 M⁻¹ s⁻¹.

Molecule B6 returned a Kd of 852 pM, a koff of 8.97e-05 s⁻¹ and a kon of 105000 M⁻¹ s⁻¹.

In turn, B7 showed a dissociation constant (Kd) of 9850 pM, a koff of 0.00287 s⁻¹ and a kon of 292000 M⁻¹ s⁻¹.

B3 gave a Kd of 11900 pM, a koff of 0.000782 s⁻¹ and a kon of 65500 M⁻¹ s⁻¹.

B8 had an equilibrium dissociation constant (Kd) of 5330 pM, a koff of 0.00103 s⁻¹ and a kon of 193000 M⁻¹ s⁻¹.
